Target: T1, AAV9 empty capsid (adeno-associated virus serotype 9 (AAV9), Assembled icosahedral particle of about 60 copies of VP1, VP2 and VP3 (nested forms of one cap gene product) with no nuc [CUT])
T1 construct: Assembled viral particle without nucleic acid, adsorbed to a Maxisorp plate; It has the same capsid protein as the full capsid and differs only in the packaged nucleic acid; also called AAV9 empty capsid sample; AAV empty capsids
Test: ELISA, 0.1 ug AAV9 coated on Maxisorp plate, scFv detected with HRP-labeled anti-His-Tag antibody, A450-A650; reference: blank (BSA)

B1: second anti-AAV-scFv [2] (scFv)
scFv: QSLEESGGDLVKPGASLTLTCTASGFSFSSNYWMFWVRQAPGKGLEWIAHIYGGSSGSTYYASWAKGRFTISKTSSTTVTLQMTSLTAADTATYFCATVDNGYSDLKLWGPGTLVTVTSGGGGSGGGGSGGGGSELVLTQTADSVEAGVGGTVTIKCQASQSIRNWLSWYQQKPGQPPKLLISRASTLASGVPSRFSGSGSGTEFTLTISDLECDDGATYYCQSSFYADSGEPAFGGGTEVDIKRSAAAGGGSEQKLISEEDLGGGSHHHHHH
notes: Rabbit-derived scFv from a phage library, purified from E. coli culture supernatant with His MultiTrap FF; also called second anti-AAV full capsid molecule
IE/IB (ratio of ELISA absorbance for the empty capsid sample to that for the blank (BSA)): 3.7 ratio

Source: EP4806914A1 (Daicel Corporation, dated 2026)
